In patent publication US9605064B2, “Methods and compositions for treatment of skin disorders” (AbbVie Biotechnology Ltd, priority 2006, dated 2017):
Where “and” joins values, the source holds several entries; their conditions need not be identical. Equal values may be shown once. Marks after values point to notes of the source that are not given here.

Key:
hepatitis B virus (HBV) = conditions: cited from earlier work
[1] = system: adult patients with moderate to severe chronic plaque psoriasis; conditions: in vivo
[2] = system: patients with moderate to severe plaque psoriasis; assay: EuroQOL 5D (EQ-5D), Phase II trial; assay type: in vivo, human; conditions: Week 12
Method: This study provided the opportunity to evaluate the validity and responsiveness to change in clinical status of PROs instruments. Patients completed the DLQI, SF-36, and EQ-5D questionnaires at baseline and at 12 weeks. Blinded investigators assessed the Psoriasis Area and Severity Index (PASI) scores and the Physician's Global Assessment (PGA) scores of enrolled patients. The responsiveness of the measures to changes in the clinical endpoints from baseline to Week 12 was assessed. Estimates of minimum important differences (MID) were derived. All analyses were performed with blinded data; findings and conclusions were not biased based on treatment condition.
Three PROs measures were used in the study and are the subject of the analyses reported here. All PROs measures were assessed at baseline and at Week 12 (or early termination, if applicable).
The EQ-5D [17,18] is a six-item, preference-based instrument designed to measure general health status. The EQ-5D has two sections: The first consists of five items to assess degree of physical functioning (mobility, self-care, usual activities, pain/discomfort, and anxiety/depression). […]
The relationship between mean change in EQ-5D and clinical responses was evaluated from baseline to Week 12. […]

[3] = system: patients with moderate to severe psoriasis; assay: PASI 75 response, pooled Phase II (M02-528), CHAMPION and REVEAL by prior systemic therapy; assay type: in vivo, human; conditions: for PASI 75 Response: Overall: pooled studies, ITT, missing = nonresponder
Method: For the Phase III studies, study investigators collected patient histories of use of systemic psoriasis treatments over lifetime and response to systemic treatments administered within 12 months of study entry (patient recall of response to treatments administered more than 12 months before enrollment was not collected). For the Phase II study, patient histories of use of systemic treatments for psoriasis administered within 12 months of study entry and response to treatment within 12 months were collected. PASI response rates were assessed through Week 12 for the Phase II study and through Week 16 for the Phase III studies. Intention-to-treat analyses were conducted, with patients with missing PASI responses considered non-responders.

[4] = system: adult patients with moderate to severe chronic plaque psoriasis; assay: Adverse events, REVEAL 52-week Phase III trial
[5] = system: patients with severe psoriasis who were non-responders to high-dosage etanercept; assay: DLQI, open-label adalimumab in non-responders to high-dosage etanercept; assay type: in vivo, human
Method: Details on clinical course and adverse events were recorded, along with measurements of PASI and Dermatology Life Quality Index (DLQI) at baseline and Weeks 2, 4, 8, and 12.
At each clinical visit PASI, DLQI, and percentage body surface area (% BSA) affected were assessed and recorded. In addition, patients received medical assessments together with monitoring laboratory investigations (FIG. 11).

[6] = Adalimumab Treatment Group (540.5 PY)
[7] = Adalimumab Treatment Group, 52 weeks (540.5 PYs)
[8] = Period A, adalimumab-treated patients

In the case of “Adalimumab: a human anti-TNF mAb, described in U.S. Pat. No. 6,090,382 as D2E7 (HUMIRA, Abbott Laboratories)”, the “reactivation of hepatitis B virus (HBV)” value (hepatitis B virus (HBV)) is given as “associated with reactivation of hepatitis B virus (HBV)”, the “Infectious AEs, percentage” value [1] is given as 28.9‡ % and the “Upper Respiratory Tract Infection” value [1] is given as 59 (7.2) n (%). The “Mean Change in EQ-5D VAS, Change from Baseline” value ([2]; 40 mg eow) was 18, the “Mean Change in EQ-5D VAS, Change from Baseline” value ([2]; 40 mg weekly) was 10.9 and the “PASI 75 Response: Overall” value ([3]; Week 4) was 19.4%. The “PASI 75 Response: Overall” value ([3]; Week 12) was 68.1%, the “PASI 75 Response: Lack of Response: MTX” value ([3]; Week 16, patients with prior lack of response to MTX (N = 32)) was 65.6% * (N = 32) and the “PASI 75 Response: Lack of Response: Cyclosporine” value ([3]; Week 16, patients with prior lack of response to cyclosporine (N = 7)) was 71.4% (N = 7). For the same substance, the “PASI 75 Response: Lack of Response: Oral PUVA” value ([3]; Week 16, patients with prior lack of response to oral PUVA (N = 6)) was 83.3% (N = 6), the “PASI 75 response rate” value ([3]; overall (n=921), Week 16) was 72.1% and the “PASI 75 response rate” value ([3]; overall (n=966), Week 4) was 19.4%. For the same substance, the “PASI 75 response rate” value ([3]; patients who had failed to respond to systemic therapy (n=152), Week 16) was 70.4%, the “PASI 75 response rate” value ([3]; patients who had failed to respond to systemic therapy (n=160), Week 4) was 15.6% and the “PASI 75 response rate” value ([3]; patients who had received systemic therapies (n=491), Week 16) was 72.7%. For the same substance, the “PASI 75 response rate” value ([3]; patients who had received systemic therapies (n=511), Week 4) was 21.7%, the lymphomas ([4]; 52-week study) was “no lymphomas were diagnosed” and the opportunistic infection ([4]; 52-week study) was “One case of oral candidiasis”. For the same substance, the tuberculosis ([4]; 52-week study, patient PPD+ve at baseline, non-compliant with INH prophylaxis) was “one case of presumptive tuberculosis”, the “Allergic Reaction, rate” value [4, 6] was 0.002 Event/PY and the “Congestive Heart Failure, rate” value [4, 6] was 0.002 Event/PY. For the same substance, the “Demyelinating Disorder, rate” value [4, 6] was 0 Event/PY, the “Injection Site Reaction, rate” value [4, 6] was 0.017 Event/PY and the “Lupus-like Syndrome, rate” value [4, 6] was 0 Event/PY. For the same substance, the “Lymphoma, rate” value [4, 6] was 0 Event/PY, the “Malignancies, excluding NMSC + lymphoma, rate” value [4, 6] was 0.004 Event/PY and the “Non-melanoma skin cancers, rate” value [4, 6] was 0.013 Event/PY. For the same substance, the “Tuberculosis (TB), rate” value [4, 6] was 0.002 Event/PY, the “AEs leading to withdrawal, rate” value [4, 7] was 0.078 Event/PY and the “Any AE, rate” value [4, 7] was 3.991 Event/PY. The “Serious AEs, rate” value [4, 7] was 0.061 Event/PY, the “Allergic Reaction, rate” value ([4]; Period A (250.2 PY)) was 0.004 Event/PY and the “Congestive Heart Failure, rate” value ([4]; Period A (250.2 PY)) was 0.004 Event/PY. The “Demyelinating Disorder, rate” value ([4]; Period A (250.2 PY)) was 0 Event/PY, the “Injection Site Reaction, rate” value ([4]; Period A (250.2 PY)) was 0.276 Event/PY and the “Lupus-like Syndrome, rate” value ([4]; Period A (250.2 PY)) was 0 Event/PY. The “Lymphoma, rate” value ([4]; Period A (250.2 PY)) was 0 Event/PY, the “Malignancies, excluding NMSC + lymphoma, rate” value ([4]; Period A (250.2 PY)) was 0.008 Event/PY and the “Non-melanoma skin cancers, rate” value ([4]; Period A (250.2 PY)) was 0.016 Event/PY. For the same substance, the “Tuberculosis (TB), rate” value ([4]; Period A (250.2 PY)) was 0 Event/PY, the “AEs leading to withdrawal, rate” value ([4]; Period A (250.2 PYs)) was 0.072 Event/PY and the “Any AE, rate” value ([4]; Period A (250.2 PYs)) was 4.616 Event/PY. The “Serious AEs, rate” value ([4]; Period A (250.2 PYs)) was 0.068 Event/PY, the “AEs leading to withdrawal, percentage” value ([4]; Period A (N = 814)) was 1.7% and the “Allergic Reaction, percentage” value ([4]; Period A (N = 814)) was 1%. The “Any AE, percentage” value ([4]; Period A (N = 814)) was 62.2‡ %, the “Congestive Heart Failure, percentage” value ([4]; Period A (N = 814)) was 1% and the “Demyelinating Disorder, percentage” value ([4]; Period A (N = 814)) was 0%. The “Injection Site Reaction, percentage” value ([4]; Period A (N = 814)) was 6.9%, the “Lupus-like Syndrome, percentage” value ([4]; Period A (N = 814)) was 0% and the “Lymphoma, percentage” value ([4]; Period A (N = 814)) was 0%. For the same substance, the “Malignancies, excluding NMSC + lymphoma, percentage” value ([4]; Period A (N = 814)) was 0.2%, the “Non-melanoma skin cancers, percentage” value ([4]; Period A (N = 814)) was 0.5% and the “Opportunistic Infections, excluding TB, percentage” value ([4]; Period A (N = 814)) was 0%. For the same substance, the “Serious AEs, percentage” value ([4]; Period A (N = 814)) was 1.8%, the “Serious Infectious AEs, percentage” value ([4]; Period A (N = 814)) was 0.6% and the “Severe Infectious AEs, percentage” value ([4]; Period A (N = 814)) was 0.7%. The “Tuberculosis (TB), percentage” value ([4]; Period A (N = 814)) was 0%, the Nasopharyngitis ([4]; Period A (N = 814), common AE ≧5%) was 45 (5.3) n (%) and the “patients with serious AEs” value ([4]; Period A (weeks 0-16)) was 1.8%. The Nasopharyngitis [4, 8] was 5.3%, the Sinusitis [4, 8] was 2.7% and the “upper respiratory tract infections” value [4, 8] was 7.2%. The DLQI ([5]; Week 2, individual patients 1-5 (c1-c5), weekly adalimumab) was 17 and 10 and 30 and 9 and 5, the DLQI ([5]; Week 4, individual patients 1-5 (c1-c5), weekly adalimumab) was 16 and 5 and 28 and 4 and 7 and the DLQI ([5]; Week 8, individual patients 1-5 (c1-c5), weekly adalimumab) was 15 and 3 and 0 and 9. The DLQI ([5]; Week 12, individual patients 1-5 (c1-c5), weekly adalimumab) was 6 (2×) and 1 and 26 and 2, the “mean decrease in DLQI score” value ([5]; five patients, Week 12) was 8.8 and the “% Improvement in DLQI from baseline to Week 12” value ([5]; individual patients 1-5 (c1-c5), weekly adalimumab) was 68% and 91% and 13% and 82% and 57%.
